Measured values as given in paper PMC3178552 (PLoS Pathogens, 2011).
Read-outs that look alike come from different tables or passages of the source.

How the values were obtained:
[1] = target: T1, vesicular stomatitis virus nucleoprotein lacking its 21 N-terminal residues (N[change]), MBP tag removed (vesicular stomatitis virus, UniProt P03521 22-422)
SEC = target: the molecule itself; assay: SEC
[2] = target: P60: the first 60 amino acids of VSV phosphoprotein P, a two-amino acid linker and a C-terminal His6-tag (vesicular stomatitis virus, UniProt P03520 1-60); assay: NMR titration; conditions: both partners purified
[3] = target: T1, vesicular stomatitis virus …; assay: SEC-MALS; conditions: both partners purified

## VREYLKSYSRLDQAVGEIDEIEAQRAEKSNYELF [shorter peptide encompassing residues 7 to 40 of P]
[1]
  stoichiometry N: 1

B1: N[change] in fusion with an N-terminal maltose binding protein tag (MBP-N[change]) (domain or fragment)
chain: EDPVEYPADYFRKSKEIPLYINTTKSLSDLRGYVYQGLKSGNVSIIHVNSYLYGALKDIRGKLDKDWSSFGINIGKAGDTIGIFDLVSLKALDGVLPDGVSDASRTSADDKWLPLYLLGLYRVGRTQMPEYRKKLMDGLTNQCKMINEQFEPLVPEGRDIFDVWGNDSNYTKIVAAVDMFFHMFKKHECASFRYGTIVSRFKDCAALATFGHLCKITGMSTEDVTTWILNREVADEMVQMMLPGQEIDKADSYMPYLIDFGLSSKSPYSSVKNPAFHFWGQLTALLLRSTRARNARQPDDIEYTSLTTAGLLYAYAVGSSADLAQQFCVGDNKYTPDDSTGGLTTNAPPQGRDVVEWLGWFEDQNRKPTPDMMQYAKRAVMSLQGLREKTIGKYAKSEFDK
SEC
  binding result: binds
[2]
  binding result: binds

B2: full-length VSV phosphoprotein P dimer (natural protein)
chain: MDNLTKVREYLKSYSRLDQAVGEIDEIEAQRAEKSNYELFQEDGVEEHTKPSYFQAADDSDTESEPEIEDNQGLYAQDPEAEQVEGFIQGPLDDYADEEVDVVFTSDWKPPELESDEHGKTLRLTSPEGLSGEQKSQWLSTIKAVVQSAKYWNLAECTFEASGEGVIMKERQITPDVYKVTPVMNTHPSQSEAVSDVWSLSKTSMTFQPKKASLQPLTISLDELFSSRGEFISVGGDGRMSHKEAILLGLRYKKLYNQARVKYSL
[3]
  stoichiometry N: 2 P molecules per NΔ21
